According to patent US12594347B2, “Nanoparticulate drug delivery systems” (Duke University, priority 2018, dated 2026):
Values joined by “and” are separate entries in the source; they are usually repeats but may differ in a detail not shown here. Identical values can stand only once.

Tests used:
[1] = Canine hematology one week after administration; format: in vivo, dogs (beagles and hounds); details: dogs
Text: (§1) Canine pharmacokinetics and toxicities. […] If noted, supportive care was provided.

[2] = Biodistribution in C26 tumor-bearing mice; format: in vivo, Balb/C mice; details: 2 h and 24 h time points
Experimental: Cell culture and tumor inoculation.
Biodistribution. […] At 2 and 24 h after injection, tissues (tumor, muscle, heart, lung, liver, spleen and kidney) were removed, weighed and suspended in 1.0 mL acidified isopropanol (75 mM HCl, 10% water, 90% isopropanol). Tissues were then homogenized using 2 mm diameter zirconia beads and a MiniBeadbeater-1TM (Biospec; Bartlesville, OK) for 2 min at 5,000 beats per minute and were incubated overnight at 4° C. in the dark. The isopropanol extracts were then vortexed, and centrifuged (14,000 RPM, 10 min, 4° C.) and 125 uL of the supernatant was loaded onto a black 96-well plate (BD Biosciences) in duplicate. […] To correct for background tissue fluorescence, tissues were removed from three untreated control mice and were processed similarly. For each tissue, a background (counts per mg tissue) curve was created using 2-fold dilutions of the processed tissues in acidified isopropanol.

[3] = pH dependent drug release
Experimental: pH dependent drug release. […] Samples were incubated at 37° C. for 0.0, 0.25, […], 0.5, 1, 2, 4, 6, or 24 hr and were neutralized by addition of pH 7.4 (0.1 M NaH2PO4). […] Eluting peaks were detected with a UV-Visible detector set at 490 nm. […] HPLC data was quantified by integrating the area under the peak corresponding to the free drug. […] For pH 5.0 samples, data points were fit by nonlinear regression to a first order release model: F %, released=a[1−exp(−ln(2) t/t1/2)] (1) where t is the time (hrs) after incubation, t1/2 is the half-life (hrs) of release, and a (%) is the maximum extent of drug release.

[4] = Pharmacokinetics of CP-DOX and ABDN-CP-DOX micelles in mice; format: in vivo; details: Balb/C mice; for Apparent distribution volume VD / Distribution half-life β t1/2 / Elimination rate constant kg / Plasma clearance CL / Plasma to tissue rate constant kpt / Tissue to plasma rate constant ktp / Area under the curve AUC / Elimination half-life α t1/2: tail vein; for Area under the curve AUC / Elimination half-life α t1/2: plasma DOX
Experimental: The isopropanol extract was then centrifuged (14,000 RPM, 10 min, 4° C.) and 125 uL of the supernatant was loaded onto a black 96-well plate (BD Biosciences) in duplicate.

[5] = target: mouse serum albumin (MSA) (Mus musculus, UniProt P07724); test: Isothermal titration calorimetry (VP-ITC) of polypeptide carriers and DOX micelles with mouse albumin; format: binding; details: PBS pH 7.4, 37° C.
Sequence of mouse serum albumin (MSA) (P07724 25-608): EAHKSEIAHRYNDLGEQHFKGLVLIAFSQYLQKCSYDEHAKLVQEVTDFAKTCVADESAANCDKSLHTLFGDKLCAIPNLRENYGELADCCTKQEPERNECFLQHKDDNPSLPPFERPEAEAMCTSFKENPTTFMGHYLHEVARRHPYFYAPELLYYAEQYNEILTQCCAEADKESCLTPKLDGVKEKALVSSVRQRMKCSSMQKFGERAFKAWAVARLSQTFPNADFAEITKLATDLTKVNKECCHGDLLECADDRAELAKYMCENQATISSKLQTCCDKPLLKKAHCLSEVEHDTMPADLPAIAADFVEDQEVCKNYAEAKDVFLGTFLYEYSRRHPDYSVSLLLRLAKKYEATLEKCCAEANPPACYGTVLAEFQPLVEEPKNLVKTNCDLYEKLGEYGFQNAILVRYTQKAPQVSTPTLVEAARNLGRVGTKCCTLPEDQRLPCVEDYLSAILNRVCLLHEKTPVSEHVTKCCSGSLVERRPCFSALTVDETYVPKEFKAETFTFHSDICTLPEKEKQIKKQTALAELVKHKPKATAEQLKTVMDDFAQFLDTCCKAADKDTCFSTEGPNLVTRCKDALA
Experimental: Interaction with albumin. Interaction of CP monomers and micelles with human and mouse albumin was analyzed by isothermal titration calorimetry (ITC).

[6] = Canine serum chemistry one week after administration; format: in vivo, dogs (beagles and hounds); details: dogs
Text: as §1

[7] = system: C26 murine colon adenocarcinoma cells
Experimental: C26 murine colon adenocarcinoma cells were seeded (5000 cells/well) in a 96-well plate. After 24 h, cells were treated in triplicate with 3-fold serial dilutions of drugs beginning with 100 uM. After 72 h incubation, 20 μL of CellTiter 96 AQueous™ (Promega; Madison, WI) 3-(4,5-dimethlthiazol-2-yl)-5-(3-carboxymethoxphenyl)-2-(4-sulfophenyl)-2H-tetrazolium (MTS) reagent was added to each well followed by 3 h incubation at 37° C. The absorbance at 490 nm was determined using a Victor3™ microplate reader (Perkin Elmer; Waltham, MA). For each plate, blank wells (with no cells) were defined as 0% viability and wells treated with PBS were defined as 100% viability. The background absorbance at 490 nm was corrected by subtracting the average absorbance of the blank wells from each well. The percent viability was defined as the absorbance of each well normalized to the absorbance of wells treated with PBS. Inhibitory concentration (IC 50) values were calculated using a four-parameter logistic fit in the Prism program (GraphPad Software, San Diego, CA, USA).

[8] = Thermal turbidimetry (transition temperature); format: physicochemical; details: PBS (FIG. 8D)
Experimental: Thermal Turbidimetry. Thermal profiles of CPs and CP conjugates were determined by measuring the transition temperature (Tt) over a range of concentrations (5, 10, 25, 50, and 100 uM) in PBS, FBS, and MS using a Cary UV-visible spectrophotometer equipped with temperature controller (Agilent Technologies, CA, USA). […] The transition temperature was defined as the maximum first derivative of the optical density.

[9] = one week after administration, individual subjects
[10] = printed 'at the dose of 10 mg/kg BW DOX equivalent' (first statement of b160)

B1: ABDN-CP-DOX (conjugate)
chain: LAEAKVLANRELDKYGVSDYYKNLINNAKTVEGVKALIDEILAALPVPGAGVPGAGVPGAGVPGAGVPGAGVPGAGVPGAGVPGAGVPGAGVPGAGVPGAGVPGAGVPGAGVPGAGVPGAGVPGAGVPGAGVPGAGVPGAGVPGAGVPGAGVPGAGVPGAGVPGAGVPGAGVPGAGVPGAGVPGAGVPGAGVPGAGVPGAGVPGAGVPGAGVPGAGVPGAGVPGAGVPGAGVPGAGVPGAGVPGAGVPGAGVPGAGVPGAGVPGAGVPGAGVPGAGVPGAGVPGAGVPGAGVPGAGVPGAGVPGAGVPGAGVPGAGVPGAGVPGAGVPGAGVPGAGVPGAGVPGAGVPGAGVPGAGVPGAGVPGAGVPGAGVPGAGVPGAGVPGAGVPGAGVPGAGVPGAGVPGAGVPGAGVPGAGVPGAGVPGAGVPGAGVPGAGVPGAGVPGAGVPGAGVPGAGVPGAGVPGAGVPGAGVPGAGVPGAGVPGAGVPGAGVPGAGVPGAGVPGAGVPGAGVPGAGVPGAGVPGAGVPGAGVPGAGVPGAGVPGAGVPGAGVPGAGVPGAGVPGAGVPGAGVPGAGVPGAGVPGAGVPGAGVPGAGVPGAGVPGAGVPGAGVPGAGVPGAGVPGAGVPGAGVPGAGVPGAGVPGAGVPGAGVPGAGVPGAGVPGAGVPGAGVPGAGVPGAGVPGAGVPGAGVPGAGVPGAGVPGAGVPGAGVPGAGVPGAGVPGAGVPGAGVPGAGVPGAGVPGAGVPGAGVPGAGVPGAGCGGCGGCGGCGGCGGCGGCGGCGG
Abonormal Lymphs [1, 9]: 0.157 10^3/μL and 0.561 10^3/μL
Hematocrit [1, 9]: 42.7% and 43.9%
Hemoglobin [1, 9]: 14.7 g/dL and 14.6 g/dL
Lymphocytes [1, 9]: 1.572 10^3/μL and 1.122 10^3/μL
MCH [1, 9]: 24.6 pg and 23.6 pg
MCHC [1, 9]: 34.3 g/dL and 33.2 g/dL
MCV [1, 9]: 71.7 fL and 71 fL
MPV [1, 9]: 12.2 fL and 11.9 fL
Monocytes [1, 9]: 0.314 10^3/μL and 0.21 10^3/μL
PCT [1, 9]: 0.28% and 0.25%
Packed Cell-Volume [1, 9]: 42%
Plasma Protein [1, 9]: 6.2 g/dL and 5.8 g/dL
Platelets [1, 9]: 228 X10^3/μL and 208 X10^3/μL
RBC [1, 9]: 5.97 X10^6/μL and 6.19 X10^6/μL
RDW [1, 9]: 12.8% and 11.7%
Reticulocyte # [1, 9]: 0.025 X10^6/μL and 0.014 X10^6/μL
Reticulocyte % [1, 9]: 0.43% and 0.23%
Reticulocyte Absolute [1, 9]: 25000 µL⁻¹ and 14000 µL⁻¹
Segmented Neutrophils [1, 9]: 5.502 10^3/μL and 4.276 10^3/μL
WBC [1, 9]: 7.86 X10^3/μL and 7.01 X10^3/μL
abnormalities in blood hematology (in words) ([1]; one week after infusion): no hematology or serum chemistry abnormalities
distribution to organs of the reticuloendothelial system i.e. liver and spleen (in words) [2]: significantly smaller than that of CP-DOX micelles
in vitro drug release (in words) ([3]; acidic conditions, pH 5.0, 37° C.): released the loaded DOX
in vitro drug release / stability (in words) ([3]; pH 7.4, 37° C.): remained stable
Apparent distribution volume VD ([4]; 10 mg/kg BW DOX equivalent): 0.34 ± 0.01 mL/g
Distribution half-life β t1/2 ([4]; 10 mg/kg BW DOX equivalent): 12.4 ± 1.4 min
Elimination rate constant kg ([4]; 10 mg/kg BW DOX equivalent): 0.10 ± 0.01 h⁻¹
Plasma clearance CL ([4]; 10 mg/kg BW DOX equivalent): 0.013 ± 0.000 mL/h/g
Plasma to tissue rate constant kpt ([4]; 10 mg/kg BW DOX equivalent): 2.08 ± 0.27 h⁻¹
Tissue to plasma rate constant ktp ([4]; 10 mg/kg BW DOX equivalent): 1.22 ± 0.13 h⁻¹
Area under the curve AUC ([4]; 10 mg/kg BW DOX equivalent): 1400.4 ± 34.2 µM·h
Elimination half-life α t1/2 ([4]; 10 mg/kg BW DOX equivalent): 18.3 ± 0.6 h
Apparent distribution volume VD ([4]; 20 mg/kg BW DOX equivalent): 0.25 ± 0.11 mL/g
Distribution half-life β t1/2 ([4]; 20 mg/kg BW DOX equivalent): 71.7 ± 17.5 min
Elimination rate constant kg ([4]; 20 mg/kg BW DOX equivalent): 0.08 ± 0.00 h⁻¹
Plasma clearance CL ([4]; 20 mg/kg BW DOX equivalent): 0.011 ± 0.000 mL/h/g
Plasma to tissue rate constant kpt ([4]; 20 mg/kg BW DOX equivalent): 0.25 ± 0.07 h⁻¹
Tissue to plasma rate constant ktp ([4]; 20 mg/kg BW DOX equivalent): 0.29 ± 0.07 h⁻¹
Area under the curve AUC ([4]; 20 mg/kg BW DOX equivalent): 3328.5 ± 100.3 µM·h
Elimination half-life α t1/2 ([4]; 20 mg/kg BW DOX equivalent): 17.5 ± 0.8 h
linearity of pharmacokinetics (in words) ([4]; 10 vs 20 mg/kg BW DOX equivalent): linear pharmacokinetics
bioavailability i.e. AUC [4, 10]: 3328.5 ± 100.3 µM·h
half-life [4, 10]: 17.5 ± 0.8 h
binding stoichiometry N [5]: 1.01±0.00
ALT [6, 9]: 18 IU/L and 21 IU/L
AST [6, 9]: 20 IU/L and 31 IU/L
Alb/Glob Ratio [6, 9]: 1.73 and 1.57
Albumin [6, 9]: 3.8 g/dL and 3.6 g/dL
Alkaline Phosphatase [6, 9]: 26 IU/L and 31 IU/L
Amylase [6, 9]: 597 IU/L and 677 IU/L
Anion Gap [6, 9]: 21 and 20.4
Bicarbonate [6, 9]: 22 mmol/L and 21 mmol/L
Bilirubin-Total [6, 9]: <0.2 mg/dL
CK [6, 9]: 141 IU/L and 296 IU/L
Calcium [6, 9]: 10.3 mg/dL and 10.7 mg/dL
Chloride [6, 9]: 109 mmol/L and 111 mmol/L
Cholesterol [6, 9]: 153 mg/dL and 94 mg/dL
Creatinine [6, 9]: 0.7 mg/dL
GGT [6, 9]: <3 IU/L
Globulin [6, 9]: 2.2 g/dL and 2.3 g/dL
Glucose [6, 9]: 90 mg/dL and 82 mg/dL
Lipase [6, 9]: 57 IU/L
Magnesium [6, 9]: 1.9 mg/dL and 2.2 mg/dL
Na/K Ratio [6, 9]: 37 and 33.6
Osomolality-Calc. [6, 9]: 293.8 mOsm/kg and 293.4 mOsm/kg
Phosphorus [6, 9]: 4.1 mg/dL and 4.7 mg/dL
Potassium [6, 9]: 4 mmol/L and 4.4 mmol/L
Protein-Total [6, 9]: 6 g/dL and 5.9 g/dL
Sodium [6, 9]: 148 mmol/L
Urea Nitrogen [6, 9]: 17 mg/dL and 15 mg/dL
abnormalities in blood serum chemistry (in words) ([6]; one week after infusion): no hematology or serum chemistry abnormalities
IC50 [7]: 310 nM
transition temperature after drug (DOX) conjugation [8]: 44 °C
